From patent US20050069921, “Compositions, kits, and methods for stimulation of homologous recombination” (published 2005) come the findings set out here.

Data set [1] has as its target T1, RAG-1 R838A/K839A/R840A core/RAG-2 core RAG-1 R838A/K839A/R840A (Mus musculus) (UniProt P15919+P21784).
T1 sequence 1: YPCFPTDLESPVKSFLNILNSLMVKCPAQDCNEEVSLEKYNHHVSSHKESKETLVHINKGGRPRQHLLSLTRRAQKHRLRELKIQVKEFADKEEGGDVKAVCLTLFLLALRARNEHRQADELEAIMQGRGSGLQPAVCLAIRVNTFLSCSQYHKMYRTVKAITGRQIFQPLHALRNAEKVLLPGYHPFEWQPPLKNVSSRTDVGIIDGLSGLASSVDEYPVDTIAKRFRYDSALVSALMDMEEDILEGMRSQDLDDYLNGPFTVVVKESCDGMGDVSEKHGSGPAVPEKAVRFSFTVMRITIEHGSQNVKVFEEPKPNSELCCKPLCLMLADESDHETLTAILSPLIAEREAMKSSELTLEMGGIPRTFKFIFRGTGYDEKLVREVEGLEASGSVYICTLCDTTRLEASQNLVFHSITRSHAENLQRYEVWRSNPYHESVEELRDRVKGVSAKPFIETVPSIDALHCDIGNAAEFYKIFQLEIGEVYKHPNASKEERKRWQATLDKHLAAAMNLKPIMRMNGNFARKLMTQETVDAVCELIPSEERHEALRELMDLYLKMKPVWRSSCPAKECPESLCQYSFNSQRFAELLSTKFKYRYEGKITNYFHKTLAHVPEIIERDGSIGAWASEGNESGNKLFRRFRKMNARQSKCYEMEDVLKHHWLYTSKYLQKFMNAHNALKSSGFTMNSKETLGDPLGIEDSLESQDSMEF
T1 sequence 2: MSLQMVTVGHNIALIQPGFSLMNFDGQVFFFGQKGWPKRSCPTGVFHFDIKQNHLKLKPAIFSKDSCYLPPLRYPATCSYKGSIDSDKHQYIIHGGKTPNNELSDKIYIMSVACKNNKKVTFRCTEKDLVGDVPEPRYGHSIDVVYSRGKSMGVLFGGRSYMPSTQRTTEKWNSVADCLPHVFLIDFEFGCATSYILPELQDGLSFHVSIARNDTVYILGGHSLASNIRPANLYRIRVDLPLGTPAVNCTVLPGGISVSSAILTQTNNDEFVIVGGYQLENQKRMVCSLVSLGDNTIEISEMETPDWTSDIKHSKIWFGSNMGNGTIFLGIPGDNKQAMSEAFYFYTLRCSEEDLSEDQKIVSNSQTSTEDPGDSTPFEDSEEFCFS
As to the kind of experiment: cell_activity. The settings on record: homologous recombination; signal ends 2.5-fold lower than wild type (FIG. 3C).

Data set [2] concerns the target T2, RAG-1/RAG-2 core, wild type (Mus musculus, UniProt P15919;P21784 P15919:330-1040,P21784:1-387).
T2 sequence 1: T1 sequence 1 with A509R, A510K, A511R
T2 sequence 2: T1 sequence 2
As to the kind of experiment: cell_activity. The note with it: homologous recombination, extrachromosomal; cleavage seen by Southern blot (FIG. 3C).

A further data set has as its system I-SceI. As to the kind of experiment: cell_activity. The note with it: homologous recombination; about 2.5-fold fewer broken ends than wild-type core RAG.
For data set [3], the target named is T2, RAG-1/RAG-2 core, wild type. As to the kind of experiment: cell_activity; homologous recombination, integrated single 12-RSS substrate; robust also for full-length RAG. The settings on record: tags: GST-RAG-1 core (pEBG-1DN) and RAG-2 core (pMal-1 vector); chain copies: 2,2. Here is the method: (§1) Relative stimulation is calculated by dividing the percentage of CFP-positive cells of experimental (nuclease-containing) transfections by the percentage of CFP-positive cells present in the DDE RAG mutant expressing transfection (negative control). It is important to maintain constant (DNA) in each transfection because increases in DNA (including non-substrate molecules) nonspecifically stimulate homologous recombination, as recently reported (Hostager et al., 2003). Experiments have been repeated over a dozen times on three different flow cytometers; FIGS. 3, 4, 6, and 7 show data from five experiments on the Becton Dickinson LSRII.
(§2) The next set of experiments took a complementary approach. Instead of using nick-only RAG proteins, a nick-only substrate was used (i.e., a single 12-RSS, which readily undergoes nicking in vitro (Cuomo et al., 1996; Ramsden et al., 1996) but yields very poor DSB formation in vivo (Steen et al., 1997)). […] Even when the nick-only mutants are assayed on the single RSS substrate, they are able to stimulate homologous recombination as efficiently as the full-length or core wild-type RAG proteins (FIG. 7). […]

A further data set concerns the target RAG-1/RAG-2 full-length (UniProt P15919;P21784 P15919:1-1040,P21784:1-527). As to the kind of experiment: cell_activity; homologous recombination, integrated single 12-RSS substrate. The note with it: chain copies: 2,2. The protocol: as §1, §2

Residue numbers refer to the chain shown, from its start.

As to “SE substrate (pJH289 recombination zone, 12/23 RSS pair)”, the activity (fold over DDE) in data set [1] came out at 205; in data set [2], 13. Consider I-SceI site substrate, for which the activity (fold over wild-type core RAG) in the data set with I-SceI came to 9.

B1: 12-RSS substrate (dsDNA)
DNA 1: CACAGTGCTACAGACTGGAACAAAAACC
DNA 2: GGTTTTTGTTCCAGTCTGTAGCACTGTG
Take B1: the activity (in data set [3]; with RAG-1/RAG-2 full-length) was 15 fold over DDE in each case.
